# T1: TNFRSF17 (Q02223), i.e., BCMA (UniProt Q02223 1-184)
# T1 construct: whole, on cells; also called B cell maturation antigen; CD269
# T1 sequence (looked up): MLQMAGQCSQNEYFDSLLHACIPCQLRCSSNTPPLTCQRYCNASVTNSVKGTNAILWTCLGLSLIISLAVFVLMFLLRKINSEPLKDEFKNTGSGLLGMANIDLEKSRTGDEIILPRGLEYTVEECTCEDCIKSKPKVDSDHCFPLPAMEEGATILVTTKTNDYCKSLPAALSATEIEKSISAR
# B1: B20-scFv-rabFc (Fc fusion)
# scFv: DIQMTQSPSSLSASVGDRVTITCRASQGISNYLNWYQQKPGKAPKPLIYYTSNLQSGVPSRFSGSGSGTDYTLTISSLQPEDFATYYCMGQTISSYTFGQGTKLEIKGGGGSGGGGSGGGGSEVQLVESGGGLVQPGGSLRLSCAASGFTFSNFDMAWVRQAPGKGLVWVSSITTGADHAIYADSVKGRFTISRDNAKNTLYLQMNSLRAEDTAVYYCVRHGYYDGYHLFDYWGQGTLVTVSS
# notes: not shown: rabbit Fc (rabFc)
# Target: T1, TNFRSF17 (Q02223), i.e., BCMA
# Experiment: flow cytometry, HEK293T membrane protein array, 20 ug/mL
# Description: The light chain variable region of SEQ ID NO: 1 and the heavy chain variable region of SEQ ID NO: 2 were used to prepare a single chain antibody B20-scFv-rabFc, and membrane protein array experiment was performed.
# 20 ug/mL of B20-scFv-rabFc was added to HEK293T cell array transiently transfected with 5344 membrane proteins, respectively.
binder,measurement,value
B1,binding result,binds

# — US20240000839A1 (CELLULAR BIOMEDICINE GROUP HK, published 2024)
